Test results from article PMC9613975.

What was measured:
[1] = target: PacII S subunit (HsdS), full length, C-terminal 6His tag (assembly analysis) (Pseudomonas alcaligenes NEB585); test: SEC; only two subunits co-expressed in E. coli (M1 with S, or M2 with S), purified by the same strategy as the wild-type PacII MTase; SEC
[2] = target: PacII S subunit (HsdS), full length, C-terminal 6His tag (assembly analysis) (Pseudomonas alcaligenes NEB585); test: SEC; S subunit alone on size-exclusion chromatography; monomer-dimer equilibrium

| Substance | stoichiometry N [1] | stoichiometry N [2] |
| --- | --- | --- |
| PacII M1 subunit (HsdM1), full length, construct without the 6His-SUMO tag (assembly analysis) (natural protein) | 1 M1 per S | – |
| PacII S subunit (HsdS), full length, C-terminal 6His tag (assembly analysis) (natural protein) | – | 2 |
